The data set concerns Escherichia coli TOP10. The data set can be described thus: shrunken log2 fold change of peptide-encoding DNA abundance (4.5 h post-induction vs induction); higher = less antimicrobial activity (less host growth inhibition). The note with it: time post-induction: 4.5 h; library: site-saturation at positions 5, 18, 19, 20.

From the supplement of paper PMC9112550, “Optimization of the antimicrobial peptide Bac7 by deep mutational scanning” (BMC Biology, 2022) come the findings set out here.
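Note: peptides expressed intracellularly from a pBAD plasmid library in pooled LB shake-flask culture, induced with 0.3% L-arabinose, DNA abundance read by NGS, three biological replicates, DESeq2 with apeglm shrinkage.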

For RRIRNRPPRLPRPRPRPHHWPRP, the “shrunken log2 fold change” value was -0.0959. In the case of RRIRSRPPRLPRPRPRPEHNPRP it was -0.0911; in that of RRIRQRPPRLPRPRPRPLTYPRP, -0.13; in that of RRIRTRPPRLPRPRPRPWNAPRP, -0.00214. With RRIRDRPPRLPRPRPRPFEYPRP the figure was -0.00586; with RRIRDRPPRLPRPRPRPKEGPRP, 0.32; with RRIRARPPRLPRPRPRPSWCPRP, -0.207.

As for RRIRRRPPRLPRPRPRPIGRPRP, the “shrunken log2 fold change” value stood at 0.00106.

Turning to RRIRVRPPRLPRPRPRPLYPPRP, the “shrunken log2 fold change” value is -0.586.

RRIRKRPPRLPRPRPRPRWNPRP: the “shrunken log2 fold change” value was 0.323.

Consider RRIRLRPPRLPRPRPRPWCPPRP, for which the “shrunken log2 fold change” value amounted to 0.0721. In the case of RRIRARPPRLPRPRPRPSWSPRP it was 0.0204; in that of RRIRKRPPRLPRPRPRPREMPRP, -0.0629.

Turning to RRIRSRPPRLPRPRPRPIHGPRP, the “shrunken log2 fold change” value was -0.159. In the case of RRIRWRPPRLPRPRPRPHQDPRP it was 0.134; in that of RRIRNRPPRLPRPRPRPWRLPRP, 0.0636; in that of RRIRTRPPRLPRPRPRPTNDPRP, -0.547.

On to RRIRLRPPRLPRPRPRPRPYPRP, for which the “shrunken log2 fold change” value was -0.0267.

For RRIRWRPPRLPRPRPRPMCAPRP, the “shrunken log2 fold change” value is 0.713. For the sequence RRIRCRPPRLPRPRPRPEWKPRP, the “shrunken log2 fold change” value is 0.0169. In the case of RRIRERPPRLPRPRPRPDVIPRP it was -0.502; in that of RRIRQRPPRLPRPRPRPWVAPRP, -0.182.

For the sequence RRIRDRPPRLPRPRPRPLNRPRP, the “shrunken log2 fold change” value is -0.0679. In the case of RRIRTRPPRLPRPRPRPWQKPRP it was -0.1; in that of RRIRCRPPRLPRPRPRPGDTPRP, -0.0505. With RRIRFRPPRLPRPRPRPWHRPRP the figure was 2.08; with RRIRYRPPRLPRPRPRPTSVPRP, -0.395. With RRIRRRPPRLPRPRPRPWKLPRP, the “shrunken log2 fold change” value was -0.0807. With RRIRNRPPRLPRPRPRPTLKPRP the figure was 0.0241; with RRIRWRPPRLPRPRPRPPCSPRP, -0.00461. With RRIRARPPRLPRPRPRPLASPRP the figure was 0.841; with RRIRYRPPRLPRPRPRPETFPRP, -0.0918; with RRIRTRPPRLPRPRPRPTPTPRP, 0.289. With RRIRMRPPRLPRPRPRPGDHPRP the figure was 0.147; with RRIRKRPPRLPRPRPRPHHNPRP, -0.421; with RRIRPRPPRLPRPRPRPERLPRP, 0.0284. Take RRIRGRPPRLPRPRPRPIFWPRP: the “shrunken log2 fold change” value was found to be 0.531. Turning to RRIRERPPRLPRPRPRPCIVPRP, the “shrunken log2 fold change” value is -0.427. With RRIRFRPPRLPRPRPRPHDDPRP the figure was -0.531; with RRIRGRPPRLPRPRPRPKHNPRP, 0.203.

As to RRIRKRPPRLPRPRPRPSTTPRP, the “shrunken log2 fold change” value was 0.162. In the case of RRIRRRPPRLPRPRPRPNYEPRP it was 0.0979. Regarding RRIRPRPPRLPRPRPRPVAPPRP, the “shrunken log2 fold change” value came out at 0.411. With RRIRFRPPRLPRPRPRPRIYPRP the figure was -0.326; with RRIRGRPPRLPRPRPRPTGNPRP, 0.452; with RRIRARPPRLPRPRPRPHDFPRP, 0.0354. In the case of RRIRWRPPRLPRPRPRPFYSPRP it was -0.681; in that of RRIRNRPPRLPRPRPRPNLAPRP, -0.137; in that of RRIRFRPPRLPRPRPRPHYGPRP, 0.0398. Turning to RRIRKRPPRLPRPRPRPHWRPRP, the “shrunken log2 fold change” value was found to be 0.3.

RRIRMRPPRLPRPRPRPDRKPRP: the “shrunken log2 fold change” value was 0.0503. As to RRIRRRPPRLPRPRPRPWSGPRP, the “shrunken log2 fold change” value stood at 0.0397.

RRIRYRPPRLPRPRPRPEMCPRP: the “shrunken log2 fold change” value is -0.238.

Consider RRIRDRPPRLPRPRPRPINEPRP, for which the “shrunken log2 fold change” value was -0.144. In the case of RRIRMRPPRLPRPRPRPNNYPRP it was 0.0147; in that of RRIRHRPPRLPRPRPRPLDWPRP, 0.393; in that of RRIRIRPPRLPRPRPRPSCFPRP, -0.625. With RRIRWRPPRLPRPRPRPRKDPRP, the “shrunken log2 fold change” value was -0.0246. For RRIRQRPPRLPRPRPRPFHAPRP, the “shrunken log2 fold change” value was -0.117.

As to RRIRKRPPRLPRPRPRPPKYPRP, the “shrunken log2 fold change” value was -0.0749. Consider RRIRVRPPRLPRPRPRPHVGPRP, for which the “shrunken log2 fold change” value was found to be 0.0858. With RRIRKRPPRLPRPRPRPFTYPRP the figure was -0.0389; with RRIRGRPPRLPRPRPRPKGWPRP, 1.46; with RRIRARPPRLPRPRPRPEDIPRP, 0.473.

Consider RRIRKRPPRLPRPRPRPMKYPRP, for which the “shrunken log2 fold change” value was -0.152.

Turning to RRIRTRPPRLPRPRPRPQSFPRP, the “shrunken log2 fold change” value amounted to 0.015. In the case of RRIRLRPPRLPRPRPRPWGDPRP it was -0.176; in that of RRIRLRPPRLPRPRPRPRQWPRP, 0.223. On to RRIRTRPPRLPRPRPRPAEPPRP, for which the “shrunken log2 fold change” value was determined as 0.392. With RRIRCRPPRLPRPRPRPMGLPRP the figure was -0.0216; with RRIRWRPPRLPRPRPRPCNKPRP, -0.738; with RRIRGRPPRLPRPRPRPQRIPRP, 0.178. As for RRIRWRPPRLPRPRPRPTKAPRP, the “shrunken log2 fold change” value worked out at 0.122. As to RRIRMRPPRLPRPRPRPVMIPRP, the “shrunken log2 fold change” value was 0.021. In the case of RRIRCRPPRLPRPRPRPTRQPRP, the “shrunken log2 fold change” value amounted to 0.503. In the case of RRIRYRPPRLPRPRPRPHYLPRP it was -0.285; in that of RRIRWRPPRLPRPRPRPGTNPRP, 0.243. With RRIRYRPPRLPRPRPRPCYVPRP the figure was -0.0553; with RRIRQRPPRLPRPRPRPWGDPRP, -0.138; with RRIRPRPPRLPRPRPRPKVDPRP, 0.0884.

In the case of RRIRGRPPRLPRPRPRPDTDPRP, the “shrunken log2 fold change” value came to 1.01. In the case of RRIRGRPPRLPRPRPRPACSPRP it was 0.773. With RRIRYRPPRLPRPRPRPFNTPRP the figure was -0.468; with RRIRHRPPRLPRPRPRPEDSPRP, 0.0648. Take RRIRPRPPRLPRPRPRPDVYPRP: the “shrunken log2 fold change” value is -0.194.

For RRIRSRPPRLPRPRPRPTMRPRP, the “shrunken log2 fold change” value is 0.881. RRIRDRPPRLPRPRPRPPWIPRP: the “shrunken log2 fold change” value is -0.29. With RRIRQRPPRLPRPRPRPGAHPRP the figure was 0.179; with RRIRTRPPRLPRPRPRPATFPRP, -0.129. In the case of RRIRKRPPRLPRPRPRPPSRPRP it was 0.772; in that of RRIRSRPPRLPRPRPRPHMVPRP, -0.112; in that of RRIRGRPPRLPRPRPRPTVVPRP, 0.41. With RRIRRRPPRLPRPRPRPCNRPRP the figure was -0.509. Turning to RRIRQRPPRLPRPRPRPFTYPRP, the “shrunken log2 fold change” value is -0.0211. With RRIRCRPPRLPRPRPRPSSAPRP the figure was -0.278; with RRIRFRPPRLPRPRPRPSLLPRP, -0.311; with RRIRGRPPRLPRPRPRPISMPRP, -0.0173. In the case of RRIRIRPPRLPRPRPRPMNRPRP it was -0.108; in that of RRIRMRPPRLPRPRPRPKPNPRP, 0.954. In the case of RRIRRRPPRLPRPRPRPIQFPRP it was 0.153. For RRIRQRPPRLPRPRPRPRRRPRP, the “shrunken log2 fold change” value was 0.255. With RRIRSRPPRLPRPRPRPLFYPRP the figure was -0.413; with RRIRTRPPRLPRPRPRPCTNPRP, -0.0102. With RRIRIRPPRLPRPRPRPWDMPRP the figure was -0.00715; with RRIRIRPPRLPRPRPRPQCRPRP, -0.0364. In the case of RRIRWRPPRLPRPRPRPRHCPRP it was 0.0392. As for RRIRWRPPRLPRPRPRPSSEPRP, the “shrunken log2 fold change” value turned out to be 0.0908.

Consider RRIRSRPPRLPRPRPRPRIFPRP, for which the “shrunken log2 fold change” value was determined as 0.206. With RRIRARPPRLPRPRPRPPRDPRP the figure was 1.04. In the case of RRIRPRPPRLPRPRPRPDNNPRP it was -0.512; in that of RRIRMRPPRLPRPRPRPQSHPRP, 0.083. As for RRIRFRPPRLPRPRPRPPKHPRP, the “shrunken log2 fold change” value is 0.292. In the case of RRIRDRPPRLPRPRPRPHCHPRP it was -0.276; in that of RRIRYRPPRLPRPRPRPHMDPRP, -1.85; in that of RRIRARPPRLPRPRPRPHGGPRP, 0.301. With RRIRERPPRLPRPRPRPLDSPRP the figure was -0.344. With RRIRKRPPRLPRPRPRPYTWPRP the figure was -0.231.

Turning to RRIRTRPPRLPRPRPRPSLRPRP, the “shrunken log2 fold change” value was -0.294. With RRIRNRPPRLPRPRPRPHYNPRP the figure was -0.619; with RRIRYRPPRLPRPRPRPTSSPRP, -0.0743.

Take RRIRRRPPRLPRPRPRPWESPRP: the “shrunken log2 fold change” value is 0.0904.

Consider RRIRDRPPRLPRPRPRPEPPPRP, for which the “shrunken log2 fold change” value stood at 1.06. As to RRIRHRPPRLPRPRPRPNLSPRP, the “shrunken log2 fold change” value is 0.28. With RRIRVRPPRLPRPRPRPKWWPRP the figure was 0.0767.

Regarding RRIRERPPRLPRPRPRPNGWPRP, the “shrunken log2 fold change” value is -0.00266.
